Reference: PMC9482650, “Quantitative fragmentomics allow affinity mapping of interactomes” (Nature Communications, 2022)

B1: HPV33-E6, P06427 (peptide)
chain: SRSRRRETAL
B2: SLC15A5, A6NIM6 (peptide)
chain: SSIDLWETAL
B3: HPV82-E6, Q9IR59 (peptide)
chain: PPRQRSETQV

Target: T1, PDZD11, Q5EBL8
T1 sequence (Q5EBL8 42-139, limits assumed, looked up): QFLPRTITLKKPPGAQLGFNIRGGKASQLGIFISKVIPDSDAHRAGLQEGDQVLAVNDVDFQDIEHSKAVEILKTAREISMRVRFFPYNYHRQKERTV
Assay: holdup assay
Set-up: key: below the threshold = too weak to quantify, mostly under pKd 3.1 to 4
Conditions: plain residues with an end cap or a label only (N-terminal biotin on a linker: ttds)

| Binder | pKd |
| --- | --- |
| B1 | below the threshold |
| B2 | below the threshold |
| B3 | below the threshold |

Target: T2, LNX2_4, Q8N448
T2 sequence (Q8N448 595-690, limits assumed, looked up): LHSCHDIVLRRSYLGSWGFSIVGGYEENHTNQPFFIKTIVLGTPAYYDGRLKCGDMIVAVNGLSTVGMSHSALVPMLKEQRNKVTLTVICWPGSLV
Assay: holdup assay
Set-up: key: below the threshold = too weak to quantify, mostly under pKd 3.1 to 4
Conditions: plain residues with an end cap or a label only (N-terminal biotin on a linker: ttds)

| Binder | pKd |
| --- | --- |
| B1 | below the threshold |
| B2 | 5.03 |
| B3 | below the threshold |

Target: PARD3_1, Q8TEW0
Assay: holdup assay
Set-up: key: below the threshold = too weak to quantify, mostly under pKd 3.1 to 4
Conditions: plain residues with an end cap or a label only (N-terminal biotin on a linker: ttds)

PARD3_1, Q8TEW0, sequence (Q8TEW0 264-372): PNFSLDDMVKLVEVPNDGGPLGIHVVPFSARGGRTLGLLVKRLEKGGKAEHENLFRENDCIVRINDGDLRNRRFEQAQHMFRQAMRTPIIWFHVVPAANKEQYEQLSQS

| Binder | pKd |
| --- | --- |
| B1 | below the threshold |
| B2 | below the threshold |
| B3 | below the threshold |

Target: RIMS2, Q9UQ26
Assay: holdup assay
Set-up: key: below the threshold = too weak to quantify, mostly under pKd 3.1 to 4
Conditions: plain residues with an end cap or a label only (N-terminal biotin on a linker: ttds)

RIMS2, Q9UQ26, sequence (Q9UQ26 637-758): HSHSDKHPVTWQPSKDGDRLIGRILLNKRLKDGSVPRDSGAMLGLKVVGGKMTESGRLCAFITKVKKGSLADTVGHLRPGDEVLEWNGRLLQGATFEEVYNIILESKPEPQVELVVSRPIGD

| Binder | pKd |
| --- | --- |
| B1 | below the threshold |
| B2 | below the threshold |
| B3 | below the threshold |

Target: T3, APBA3_2, O96018
T3 sequence (O96018 480-570, limits assumed, looked up): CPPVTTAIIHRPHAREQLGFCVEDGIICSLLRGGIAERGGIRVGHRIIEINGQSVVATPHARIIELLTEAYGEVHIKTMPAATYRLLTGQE
Assay: holdup assay
Set-up: key: below the threshold = too weak to quantify, mostly under pKd 3.1 to 4
Conditions: plain residues with an end cap or a label only (N-terminal biotin on a linker: ttds)

| Binder | pKd |
| --- | --- |
| B1 | 4.28 |
| B2 | below the threshold |
| B3 | below the threshold |

Target: NHERF4_3, Q86UT5
Assay: holdup assay
Set-up: key: below the threshold = too weak to quantify, mostly under pKd 3.1 to 4
Conditions: plain residues with an end cap or a label only (N-terminal biotin on a linker: ttds)

NHERF4_3, Q86UT5, sequence (Q86UT5 325-412): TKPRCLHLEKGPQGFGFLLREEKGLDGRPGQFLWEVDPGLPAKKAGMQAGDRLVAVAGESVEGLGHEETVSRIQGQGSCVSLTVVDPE

| Binder | pKd |
| --- | --- |
| B1 | below the threshold |
| B2 | below the threshold |
| B3 | below the threshold |

Target: T4, PDZD7_1, Q9H5P4
T4 sequence (Q9H5P4 81-178, limits assumed, looked up): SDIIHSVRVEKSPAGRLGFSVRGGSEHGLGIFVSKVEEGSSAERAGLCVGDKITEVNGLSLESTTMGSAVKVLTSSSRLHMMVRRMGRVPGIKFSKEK
Assay: holdup assay
Set-up: key: below the threshold = too weak to quantify, mostly under pKd 3.1 to 4
Conditions: plain residues with an end cap or a label only (N-terminal biotin on a linker: ttds)

| Binder | pKd |
| --- | --- |
| B1 | below the threshold |
| B2 | 4.95 |
| B3 | below the threshold |

Target: DVL2, O14641
Assay: holdup assay
Set-up: key: below the threshold = too weak to quantify, mostly under pKd 3.1 to 4
Conditions: plain residues with an end cap or a label only (N-terminal biotin on a linker: ttds)

DVL2, O14641, sequence (O14641 260-359): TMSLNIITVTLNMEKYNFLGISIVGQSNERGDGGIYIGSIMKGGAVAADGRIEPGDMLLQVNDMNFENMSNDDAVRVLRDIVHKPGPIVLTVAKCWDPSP

| Binder | pKd |
| --- | --- |
| B1 | below the threshold |
| B2 | below the threshold |
| B3 | below the threshold |

Target: LMO7, Q8WWI1
Assay: holdup assay
Set-up: key: below the threshold = too weak to quantify, mostly under pKd 3.1 to 4
Conditions: plain residues with an end cap or a label only (N-terminal biotin on a linker: ttds)

LMO7, Q8WWI1, sequence (Q8WWI1 1037-1138): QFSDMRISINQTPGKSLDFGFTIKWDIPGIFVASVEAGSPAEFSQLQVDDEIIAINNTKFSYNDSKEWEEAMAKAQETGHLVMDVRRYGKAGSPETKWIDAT

| Binder | pKd |
| --- | --- |
| B1 | below the threshold |
| B2 | below the threshold |
| B3 | below the threshold |

Target: PARD3B_3, Q8TEW8
Assay: holdup assay
Set-up: key: below the threshold = too weak to quantify, mostly under pKd 3.1 to 4
Conditions: plain residues with an end cap or a label only (N-terminal biotin on a linker: ttds)

PARD3B_3, Q8TEW8, sequence (Q8TEW8 490-594): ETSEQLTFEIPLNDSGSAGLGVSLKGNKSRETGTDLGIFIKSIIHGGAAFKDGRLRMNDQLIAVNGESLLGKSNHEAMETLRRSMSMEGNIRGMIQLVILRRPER

| Binder | pKd |
| --- | --- |
| B1 | below the threshold |
| B2 | below the threshold |
| B3 | below the threshold |

Target: T5, PDLIM3, Q53GG5
T5 sequence (Q53GG5 1-94, limits assumed, looked up): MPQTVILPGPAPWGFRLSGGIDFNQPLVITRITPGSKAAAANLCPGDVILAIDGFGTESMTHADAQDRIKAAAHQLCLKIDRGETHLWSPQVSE
Assay: holdup assay
Set-up: key: below the threshold = too weak to quantify, mostly under pKd 3.1 to 4
Conditions: plain residues with an end cap or a label only (N-terminal biotin on a linker: ttds)

| Binder | pKd |
| --- | --- |
| B1 | below the threshold |
| B2 | below the threshold |
| B3 | below the threshold |

Target: T6, NHERF1_1, O14745
T6 sequence (O14745 9-104, limits assumed, looked up): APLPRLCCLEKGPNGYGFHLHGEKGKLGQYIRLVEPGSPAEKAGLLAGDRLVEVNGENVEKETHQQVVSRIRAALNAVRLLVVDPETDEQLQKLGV
Assay: holdup assay
Set-up: key: below the threshold = too weak to quantify, mostly under pKd 3.1 to 4
Conditions: plain residues with an end cap or a label only (N-terminal biotin on a linker: ttds)

| Binder | pKd |
| --- | --- |
| B1 | below the threshold |
| B2 | below the threshold |
| B3 | below the threshold |

Target: T7, MPDZ_3, O75970
T7 sequence (O75970 372-473, limits assumed, looked up): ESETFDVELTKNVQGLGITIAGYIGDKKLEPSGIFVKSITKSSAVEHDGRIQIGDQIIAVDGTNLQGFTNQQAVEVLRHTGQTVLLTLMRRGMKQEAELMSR
Assay: holdup assay
Set-up: key: below the threshold = too weak to quantify, mostly under pKd 3.1 to 4
Conditions: plain residues with an end cap or a label only (N-terminal biotin on a linker: ttds)

| Binder | pKd |
| --- | --- |
| B1 | below the threshold |
| B2 | 4.85 |
| B3 | below the threshold |

Target: T8, SIPA1L3, O60292
T8 sequence (O60292 961-1052, limits assumed, looked up): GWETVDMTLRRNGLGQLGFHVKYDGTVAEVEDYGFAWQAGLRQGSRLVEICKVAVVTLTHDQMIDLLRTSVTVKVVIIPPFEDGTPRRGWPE
Assay: holdup assay
Set-up: key: below the threshold = too weak to quantify, mostly under pKd 3.1 to 4
Conditions: plain residues with an end cap or a label only (N-terminal biotin on a linker: ttds)

| Binder | pKd |
| --- | --- |
| B1 | below the threshold |
| B2 | below the threshold |
| B3 | below the threshold |

Target: MAGI3_6, Q5TCQ9
Assay: holdup assay
Set-up: key: below the threshold = too weak to quantify, mostly under pKd 3.1 to 4
Conditions: plain residues with an end cap or a label only (N-terminal biotin on a linker: ttds)

MAGI3_6, Q5TCQ9, sequence (Q5TCQ9 1014-1103): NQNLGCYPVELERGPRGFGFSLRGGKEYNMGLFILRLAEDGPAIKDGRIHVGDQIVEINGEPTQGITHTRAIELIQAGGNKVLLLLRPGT

| Binder | pKd |
| --- | --- |
| B1 | below the threshold |
| B2 | 4.89 |
| B3 | below the threshold |

Target: SDCBP_1, O00560
Assay: holdup assay
Set-up: key: below the threshold = too weak to quantify, mostly under pKd 3.1 to 4
Conditions: plain residues with an end cap or a label only (N-terminal biotin on a linker: ttds)

SDCBP_1, O00560, sequence (O00560 111-198): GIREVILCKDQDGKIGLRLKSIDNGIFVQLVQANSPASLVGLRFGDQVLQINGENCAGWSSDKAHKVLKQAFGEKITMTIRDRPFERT

| Binder | pKd |
| --- | --- |
| B1 | below the threshold |
| B2 | below the threshold |
| B3 | below the threshold |

Target: T9, PARD6G, Q9BYG4
T9 sequence (Q9BYG4 153-261, limits assumed, looked up): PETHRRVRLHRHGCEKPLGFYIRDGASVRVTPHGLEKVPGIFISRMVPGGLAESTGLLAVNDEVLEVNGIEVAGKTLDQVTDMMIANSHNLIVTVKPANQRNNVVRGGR
Assay: holdup assay
Set-up: key: below the threshold = too weak to quantify, mostly under pKd 3.1 to 4
Conditions: plain residues with an end cap or a label only (N-terminal biotin on a linker: ttds)

| Binder | pKd |
| --- | --- |
| B1 | below the threshold |
| B2 | below the threshold |
| B3 | below the threshold |

Target: T10, PDZD7_2, Q9H5P4
T10 sequence (Q9H5P4 205-303, limits assumed, looked up): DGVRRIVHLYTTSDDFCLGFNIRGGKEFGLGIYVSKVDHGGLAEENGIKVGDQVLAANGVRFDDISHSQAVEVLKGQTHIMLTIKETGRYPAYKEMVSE
Assay: holdup assay
Set-up: key: below the threshold = too weak to quantify, mostly under pKd 3.1 to 4
Conditions: plain residues with an end cap or a label only (N-terminal biotin on a linker: ttds)

| Binder | pKd |
| --- | --- |
| B1 | 4.42 |
| B2 | below the threshold |
| B3 | below the threshold |

Target: TJP1_1, Q07157
Assay: holdup assay
Set-up: key: below the threshold = too weak to quantify, mostly under pKd 3.1 to 4
Conditions: plain residues with an end cap or a label only (N-terminal biotin on a linker: ttds)

TJP1_1, Q07157, sequence (Q07157 18-120): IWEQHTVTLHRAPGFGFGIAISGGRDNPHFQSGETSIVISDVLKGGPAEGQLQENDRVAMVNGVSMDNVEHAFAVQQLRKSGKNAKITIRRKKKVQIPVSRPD

| Binder | pKd |
| --- | --- |
| B1 | below the threshold |
| B2 | below the threshold |
| B3 | below the threshold |

Target: T11, SNTB2, Q13425
T11 sequence (Q13425 110-208, limits assumed, looked up): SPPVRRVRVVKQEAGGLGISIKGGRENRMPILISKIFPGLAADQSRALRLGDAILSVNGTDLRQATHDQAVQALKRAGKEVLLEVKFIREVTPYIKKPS
Assay: holdup assay
Set-up: key: below the threshold = too weak to quantify, mostly under pKd 3.1 to 4
Conditions: plain residues with an end cap or a label only (N-terminal biotin on a linker: ttds)

| Binder | pKd |
| --- | --- |
| B1 | 4.56 |
| B2 | 5.54 |
| B3 | below the threshold |

Target: T12, MLLT4, P55196
T12 sequence (P55196 1002-1103, limits assumed, looked up): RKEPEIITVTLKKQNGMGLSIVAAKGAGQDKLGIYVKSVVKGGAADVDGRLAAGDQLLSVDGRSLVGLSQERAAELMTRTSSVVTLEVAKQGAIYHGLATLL
Assay: holdup assay
Set-up: key: below the threshold = too weak to quantify, mostly under pKd 3.1 to 4
Conditions: plain residues with an end cap or a label only (N-terminal biotin on a linker: ttds)

| Binder | pKd |
| --- | --- |
| B1 | below the threshold |
| B2 | below the threshold |
| B3 | below the threshold |

Target: CNKSR3, Q6P9H4
Assay: holdup assay
Set-up: key: below the threshold = too weak to quantify, mostly under pKd 3.1 to 4
Conditions: plain residues with an end cap or a label only (N-terminal biotin on a linker: ttds)

CNKSR3, Q6P9H4, sequence (Q6P9H4 203-303): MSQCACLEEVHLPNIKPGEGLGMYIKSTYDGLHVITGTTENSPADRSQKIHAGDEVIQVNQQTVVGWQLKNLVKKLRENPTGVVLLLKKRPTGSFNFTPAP

| Binder | pKd |
| --- | --- |
| B1 | below the threshold |
| B2 | below the threshold |
| B3 | below the threshold |

Target: T13, PDZRN3_2, Q9UPQ7
T13 sequence (Q9UPQ7 414-513, limits assumed, looked up): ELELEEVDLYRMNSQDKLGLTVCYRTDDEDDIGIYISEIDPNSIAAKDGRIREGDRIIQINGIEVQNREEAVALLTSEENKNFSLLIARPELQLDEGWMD
Assay: holdup assay
Set-up: key: below the threshold = too weak to quantify, mostly under pKd 3.1 to 4
Conditions: plain residues with an end cap or a label only (N-terminal biotin on a linker: ttds)

| Binder | pKd |
| --- | --- |
| B1 | below the threshold |
| B2 | below the threshold |
| B3 | below the threshold |

Target: NHERF2_1, Q15599
Assay: holdup assay
Set-up: key: below the threshold = too weak to quantify, mostly under pKd 3.1 to 4
Conditions: plain residues with an end cap or a label only (N-terminal biotin on a linker: ttds)

NHERF2_1, Q15599, sequence (Q15599 9-91): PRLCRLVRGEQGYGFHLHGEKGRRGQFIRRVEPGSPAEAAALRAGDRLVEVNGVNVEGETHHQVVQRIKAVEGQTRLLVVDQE

| Binder | pKd |
| --- | --- |
| B1 | below the threshold |
| B2 | 4.68 |
| B3 | below the threshold |

Target: SCRIB_4, Q14160
Assay: holdup assay
Set-up: key: below the threshold = too weak to quantify, mostly under pKd 3.1 to 4
Conditions: plain residues with an end cap or a label only (N-terminal biotin on a linker: ttds)

SCRIB_4, Q14160, sequence (Q14160 1095-1204): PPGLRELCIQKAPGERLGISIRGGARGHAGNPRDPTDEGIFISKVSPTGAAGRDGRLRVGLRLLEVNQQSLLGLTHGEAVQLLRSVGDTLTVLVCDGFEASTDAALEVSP

| Binder | pKd |
| --- | --- |
| B1 | 4.24 |
| B2 | 4.97 |
| B3 | below the threshold |
